Assay results reported in paper PMC7105138, “Modeling cancer genomic data in yeast reveals selection against ATM function during tumorigenesis” (PLoS Genetics, 2020).

Key:
Assay in all cases: EMSA
Conditions in all cases: ATP, 5 mM Mg2+, 150 mM NaCl; 25 mM Tris-Cl pH 7.6, 150 mM NaCl (also 50, 250, 300 mM), 7.5% glycerol, 1 mM beta-mercaptoethanol, 0.125% Igepal, 5 mM MgCl2, with or without 5 mM ATP; 5 nM …
[1] = system: Rad50-D67N (Saccharomyces cerevisiae)
[2] = system: Rad50-D67Y (Saccharomyces cerevisiae)
[3] = system: Rad50-L1240F-I23V (Saccharomyces cerevisiae)
[4] = system: Rad50-L1240F (Saccharomyces cerevisiae)

Substance: 83-mer dsDNA oligonucleotide
- Kd [1]: 0.2 µM
- Kd [2]: 0.32 µM
- Kd [3]: > 0.8 µM
- Kd [4]: > 0.8 µM
